± gives the standard deviation of the averaged measurements.

For 116 sequences, protein stability index results are on record in the supplement of paper PMC10724198.
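Note: PSI is a weighted mean of sequencing reads over stability bins, variants kept only with over 10 reads, mCherry proximal and sfGFP distal, peptide attached via GGGS linker.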

This series deals with Saccharomyces cerevisiae. As to the kind of experiment: protein stability index of tFT-peptide fusion (C-terminal peptide) (PSI (0-1 scale)); higher = more stable (slower turnover). The following applies: genetic background: wild type; temperature: 30 C.
As for TLRPPPPPAFPP, the protein stability index was determined as 0.719 ± 0.084.

Sequence TLSFPFRPLRLA registered a protein stability index of 0.48 ± 0.033.

The sequence TLSYSPPCSPRH yielded a protein stability index of 0.742 ± 0.03.

TLVPAYRCEWCA: the protein stability index turned out to be 0.736 ± 0.046.

TLYEVHQSENSR came in with a protein stability index of 0.666 ± 0.016.

As for TMLPQGFSGNLH, the protein stability index is 0.6891 ± 0.0025.

The sequence TMQDSNKSQGCA returned a protein stability index of 0.706 ± 0.019.

With TMSPPSTSGGMG, the protein stability index is 0.6855 ± 0.0042.

In turn, TNMTRWRIRVRD showed a protein stability index of 0.676 ± 0.053.

TNNTKRDKKRIQ returned a protein stability index of 0.703 ± 0.16.

Consider TPHNQPKPTPPC, for which the protein stability index is 0.698 ± 0.032.

Sequence TPHRVGRAAATR gave a protein stability index of 0.675 ± 0.02.

TPKAMHPNPNTL gave a protein stability index of 0.6458 ± 0.0024.

TPLLRRHSFSRN yielded a protein stability index of 0.779 ± 0.021.

Sequence TPLPLPPPRPSP yielded a protein stability index of 0.685 ± 0.0031.

In the case of TPLPSLPRPSAP, the protein stability index amounted to 0.736 ± 0.016.

In turn, TPPLHSPFLFPP gave a protein stability index of 0.671 ± 0.049.

TPPPPLSCPPPS: the protein stability index was determined as 0.487 ± 0.035.

TPPPPLVPPLPP yielded a protein stability index of 0.578 ± 0.017.

For the sequence TPPPTPSLPTRP, the protein stability index was 0.677 ± 0.057.

With TPPTHPPPLPPL, the protein stability index is 0.752 ± 0.11.

Sequence TPRSCTLPTPPP showed a protein stability index of 0.606 ± 0.051.

Sequence TPSFTLNAYMLT showed a protein stability index of 0.693 ± 0.014.

As to TPTPPPSFLHGS, the protein stability index came to 0.663 ± 0.046.

Consider TPTPPRPPFRSP, for which the protein stability index was 0.709 ± 0.035.

For the sequence TPVLPLSPFPPD, the protein stability index is 0.607 ± 0.059.

The sequence TPVPIARLRESH registered a protein stability index of 0.709 ± 0.035.

As for TPVVSVFFLPHY, the protein stability index was 0.673 ± 0.0095.

As for TQHPQPCPLAAV, the protein stability index stood at 0.712 ± 0.12.

Consider TQSNRKPLECPS, for which the protein stability index was found to be 0.679 ± 0.066.

The sequence TRGGTVKDRQQR yielded a protein stability index of 0.702 ± 0.037.

TRGSLIFACSVF showed a protein stability index of 0.576 ± 0.033.

Regarding TRIEPTQGVDSP, the protein stability index amounted to 0.664 ± 0.01.

Consider TRPKINKGKGTG, for which the protein stability index was found to be 0.6677 ± 0.0014.

Consider TRQGDLYYYLYV, for which the protein stability index is 0.67 ± 0.024.

Turning to TRRKVKYTELYQ, the protein stability index came out at 0.69 ± 0.041.

As to TRRVKWSWLLKP, the protein stability index stood at 0.7 ± 0.08.

In turn, TRSAFPSFPTRS displayed a protein stability index of 0.68 ± 0.02.

TRTSRGRTLTTL: the protein stability index was found to be 0.583 ± 0.016.

The sequence TRVGNMVARRGS came in with a protein stability index of 0.687 ± 0.048.

The sequence TSFAPPSLPRHS displayed a protein stability index of 0.735 ± 0.056.

With TSGAEKLPIANS, the protein stability index was determined as 0.648 ± 0.05.

For TSGAKKISSGTQ, the protein stability index is 0.707 ± 0.036.

Regarding TSLPPNLMRTAA, the protein stability index is 0.634 ± 0.04.

For the sequence TSNGSGLMFQSQ, the protein stability index was determined as 0.62 ± 0.019.

As for TSNLRIISTWRV, the protein stability index worked out at 0.685 ± 0.024.

On to TSPGCPFAFITL, for which the protein stability index turned out to be 0.714 ± 0.052.

In the case of TSPPPPIPLPPR, the protein stability index came out at 0.695 ± 0.032.

TSPSPLPPLFFT: the protein stability index came to 0.706 ± 0.0087.

TSPTKSPTTTNN had a protein stability index of 0.709 ± 0.039.

The sequence TSSTATWSYRNY gave a protein stability index of 0.673 ± 0.036.

TSTHSFLDFGTG yielded a protein stability index of 0.6272 ± 0.0011.

For TSTTGLHVSAMS, the protein stability index was 0.727 ± 0.021.

As for TSVVRIGVYRAS, the protein stability index was found to be 0.613 ± 0.037.

TTGNTHALSHAH returned a protein stability index of 0.717 ± 0.055.

TTLNAETCFPLS returned a protein stability index of 0.702 ± 0.043.

For the sequence TTLPFLLGSGGF, the protein stability index was 0.677 ± 0.065.

In turn, TTVESYLDRRRY returned a protein stability index of 0.664 ± 0.035.

Turning to TTVSSSLSPVPD, the protein stability index was determined as 0.7181 ± 0.0054.

Sequence TVERGGSLSLVV had a protein stability index of 0.718 ± 0.026.

TVKAGESILEQR: the protein stability index came to 0.716 ± 0.013.

Regarding TVMRPSVGHVDG, the protein stability index is 0.68 ± 0.038.

TVSRNKKKKQIQ: the protein stability index amounted to 0.613 ± 0.038.

For TVVYPFHSGGFA, the protein stability index came to 0.694 ± 0.024.

The sequence TWGRPGGDHPRE returned a protein stability index of 0.708 ± 0.0096.

Take TWRRAVSERPYP: the protein stability index turned out to be 0.725 ± 0.1.

As to TWRRGSKPHVRS, the protein stability index was determined as 0.724 ± 0.044.

In turn, TYKKAKIRKKYI registered a protein stability index of 0.6237 ± 0.0045.

For TYLGISNLHPAI, the protein stability index is 0.709 ± 0.031.

In turn, TYLSAWQFCVAS yielded a protein stability index of 0.579 ± 0.049.

Regarding TYRPEMYSRVLT, the protein stability index turned out to be 0.738 ± 0.011.

Turning to TYRYWGTLRYYD, the protein stability index was found to be 0.761 ± 0.07.

In the case of TYVPRYPPPLFP, the protein stability index was 0.72 ± 0.061.

Take VAACVSLFCGAL: the protein stability index was found to be 0.719 ± 0.074.

The sequence VAAEGCGAALSR returned a protein stability index of 0.627 ± 0.0099.

Regarding VAESCVIVFWLG, the protein stability index was 0.506 ± 0.0056.

With VAGGGGGCLVDC, the protein stability index amounted to 0.646 ± 0.022.

Sequence VAGKVWREAEPG registered a protein stability index of 0.656 ± 0.029.

The sequence VAGSQYTAGGDV displayed a protein stability index of 0.635 ± 0.044.

As for VALSSECVLSGV, the protein stability index turned out to be 0.656 ± 0.025.

In turn, VARLCVPSGPGH gave a protein stability index of 0.721 ± 0.0096.

In turn, VASLSGGQISFG returned a protein stability index of 0.612 ± 0.029.

Turning to VASTSLPDIRGV, the protein stability index came out at 0.631 ± 0.07.

With VASWNSDKTKND, the protein stability index came out at 0.752 ± 0.12.

Consider VAVGIEGGWWGV, for which the protein stability index was determined as 0.78 ± 0.042.

The sequence VAYRGGGGWRIS displayed a protein stability index of 0.6865 ± 0.005.

Regarding VAYSKWIGEIRD, the protein stability index is 0.71 ± 0.038.

Consider VAYYFVRNIIGE, for which the protein stability index was determined as 0.667 ± 0.056.

VCAVAQPCRVQL returned a protein stability index of 0.683 ± 0.025.

Sequence VCCDRWWFAFWE gave a protein stability index of 0.7241 ± 0.0012.

In the case of VCGPCVESLETR, the protein stability index came out at 0.689 ± 0.059.

As for VCGVSWSRFPVL, the protein stability index was determined as 0.716 ± 0.0099.

The sequence VCILPVTCAGMF gave a protein stability index of 0.6224 ± 0.0012.

Turning to VCLFWGVSAGCK, the protein stability index was 0.65 ± 0.04.

In turn, VCLGGWCMWGWR gave a protein stability index of 0.585 ± 0.017.

VCNLIRILSLVI gave a protein stability index of 0.496 ± 0.031.

In turn, VCVCCMGCGLGV came in with a protein stability index of 0.68773 ± 5.6e-05.

The sequence VCVGCAACIVGV registered a protein stability index of 0.636 ± 0.026.

On to VCVVGGSILRAV, for which the protein stability index worked out at 0.711 ± 0.048.

In the case of VCWLTCCGQLIA, the protein stability index was 0.514 ± 0.0068.

For the sequence VCWVRGGGVLDG, the protein stability index is 0.711 ± 0.053.

VCYGELTISNLE displayed a protein stability index of 0.654 ± 0.045.

The sequence VDCTCLPKRTYE had a protein stability index of 0.643 ± 0.1.

On to VDGLRASRFVGS, for which the protein stability index is 0.7 ± 0.048.

VDHIKAHSDSEE returned a protein stability index of 0.756 ± 0.1.

In the case of VDKLVRCISVSI, the protein stability index worked out at 0.5428 ± 0.0013.

VDLLFLMVGTSV returned a protein stability index of 0.574 ± 0.011.

In turn, VDRLDAACCIFC yielded a protein stability index of 0.601 ± 0.031.

Sequence VDVSVLVGLNFV had a protein stability index of 0.797 ± 0.056.

In the case of VECEARTVEKAN, the protein stability index was 0.63072 ± 0.00022.

As for VECGVAGSLDLA, the protein stability index worked out at 0.713 ± 0.014.

For the sequence VEEYKKRNNKEG, the protein stability index was 0.64 ± 0.01.

As to VEHQVNMGDGEM, the protein stability index stood at 0.63525 ± 3.1e-05.

The sequence VEYSVVDKRLLY yielded a protein stability index of 0.651 ± 0.065.

For the sequence VEYVRSGTLVSG, the protein stability index was 0.658 ± 0.06.

In the case of VFFSCVRFCLWF, the protein stability index turned out to be 0.562 ± 0.0082.
